The test system of data set [1] is T1, peptide ARKRERAF(3-CF3)SFGHHA.
T1 sequence: ARKRERAFSFGHHA

For data set [2], the system named is T2, CF3-CO N-capped-AKTide (CF3-CO-ARKRERAYSFGHHA).
T2 sequence: ARKRERAYSFGHHA

Take “WtAKT1 recombinant protein (activated protein Ser/Thr kinase AKT1)”: in data set [1], the “phosphorylation of the peptide followed by 19F NMR (25 nM AKT1)” value was “The peptide is a good substrate for AKT1 and trypsin”. In addition, the “phosphorylation of the peptide followed by 19F NMR (time to complete conversion; 50 nM AKT1, 30 uM peptide, 131 uM ATP)” value in data set [2] was “The enzymatic reaction is complete after 149 minutes and only the signal of the phosphorylated peptide is visible in the spectrum”.

The values above are taken from patent US20050048594.
